According to patent US20200308257A1 (VISTERRA, published 2020):
Several values for one entry are separate records, joined by “and”; a condition that tells them apart may be missing. Equal values may be shown once.

How the values were obtained:
Assay in all cases: cell-based or functional assay
[1] = molecular target: T1, hemagglutinin (HA) of influenza A/Hong Kong/4801/2014 (H3N2) (influenza A virus (H3N2))
[2] = molecular target: hemagglutinin (HA) of influenza A/California/04/2009 (H1N1) (influenza A virus (H1N1))
[3] = molecular target: T2, hemagglutinin (HA) of influenza A/Michigan/45/2015 (H1N1)pdm09 (influenza A virus (H1N1))
[4] = molecular target: hemagglutinin (HA) of influenza A/Singapore/INFIMH-16 0019/2016 (H3N2) (influenza A virus (H3N2))
[5] = molecular target: hemagglutinin (HA) of influenza A/Switzerland/8060/2017 (H3N2) (influenza A virus (H3N2))
[6] = molecular target: hemagglutinin (HA) of influenza A/Kansas/14/2017 (H3N2) (influenza A virus (H3N2))
[7] = molecular target: hemagglutinin (HA) of influenza A/Bulgaria/10101/2017 (H3N2) (influenza A virus (H3N2))
[8] = molecular target: hemagglutinin (HA) of influenza A/Latvia/30101/2017 (H3N2) (influenza A virus (H3N2))
[9] = molecular target: hemagglutinin (HA) of influenza A/Latvia/30314/2017 (H3N2) (influenza A virus (H3N2))
[10] = molecular target: hemagglutinin (HA) of influenza A/Florida/70303/2017 (H3N2) (influenza A virus (H3N2))
[11] = molecular target: hemagglutinin (HA) of influenza A/Florida/70327/2017 (H3N2) (influenza A virus (H3N2))
[12] = molecular target: hemagglutinin (HA) of influenza A/Florida/70604/2017 (H3N2) (influenza A virus (H3N2))
[13] = molecular target: hemagglutinin (HA) of influenza A/Florida/70609/2017 (H3N2) (influenza A virus (H3N2))
[14] = molecular target: hemagglutinin (HA) of influenza A/Florida/71210/2017 (H3N2) (influenza A virus (H3N2))
[15] = molecular target: hemagglutinin (HA) of influenza A/Florida/71268/2017 (H3N2) (influenza A virus (H3N2))
[16] = molecular target: hemagglutinin (HA) of influenza A/North Carolina/71330/2017 (H3N2) (influenza A virus (H3N2))
[17] = molecular target: hemagglutinin (HA) of influenza A/Bulgaria/0106011/2018 (H3N2) (influenza A virus (H3N2))
[18] = molecular target: hemagglutinin (HA) of influenza A/Latvia/0303004/2018 (H3N2) (influenza A virus (H3N2))
[19] = molecular target: hemagglutinin (HA) of influenza A/Ohio/0717002/2018 (H3N2) (influenza A virus (H3N2))
[20] = molecular target: hemagglutinin (HA) of influenza A/Georgia/0720003/2018 (H3N2) (influenza A virus (H3N2))
[21] = molecular target: hemagglutinin (HA) of influenza A/Georgia/0720004/2018 (H3N2) (influenza A virus (H3N2))
[22] = molecular target: hemagglutinin (HA) of influenza A/Pennsylvania/0725005/2018 (H3N2) (influenza A virus (H3N2))
[23] = molecular target: hemagglutinin (HA) of influenza A/Pennsylvania/0725006/2018 (H3N2) (influenza A virus (H3N2))
[24] = molecular target: hemagglutinin (HA) of influenza A/Sydney/0903001/2018 (H3N2) (influenza A virus (H3N2))
[25] = molecular target: hemagglutinin (HA) of influenza A/Belarus/1003001/2018 (H3N2) (influenza A virus (H3N2))
[26] = molecular target: hemagglutinin (HA) of influenza A/Singapore/2401001/2018 (H3N2) (influenza A virus (H3N2))
[27] = molecular target: hemagglutinin (HA) of influenza A/Spain/2604004/2018 (H3N2) (influenza A virus (H3N2))
[28] = molecular target: T1, hemagglutinin (HA) of influenza A/Hong …; remark: listed apart in the source
[29] = molecular target: hemagglutinin (HA) of influenza A/Thailand/2702006/2018 (H3N2) (influenza A virus (H3N2))
[30] = molecular target: hemagglutinin (HA) of influenza A/California/7/2009 (H1N1) (influenza A virus (H1N1))
[31] = molecular target: hemagglutinin (HA) of influenza A/Brisbane/02/2018 (H1N1) (influenza A virus (H1N1))
[32] = molecular target: hemagglutinin (HA) of influenza A/Florida/70702/2017 (H1N1) (influenza A virus (H1N1))
[33] = molecular target: hemagglutinin (HA) of influenza A/Latvia/0303005/2018 (H1N1) (influenza A virus (H1N1))
[34] = molecular target: hemagglutinin (HA) of influenza A/Latvia/0304001/2018 (H1N1) (influenza A virus (H1N1))
[35] = molecular target: hemagglutinin (HA) of influenza A/Serbia/0502013/2018 (H1N1) (influenza A virus (H1N1))
[36] = molecular target: hemagglutinin (HA) of influenza A/Serbia/0502016/2018 (H1N1) (influenza A virus (H1N1))
[37] = molecular target: hemagglutinin (HA) of influenza A/Georgia/0720001/2018 (H1N1) (influenza A virus (H1N1))
[38] = molecular target: hemagglutinin (HA) of influenza A/France/1302001/2018 (H1N1) (influenza A virus (H1N1))
[39] = molecular target: hemagglutinin (HA) of influenza A/France/1306001/2018 (H1N1) (influenza A virus (H1N1))
[40] = molecular target: hemagglutinin (HA) of influenza A/France/1307001/2018 (H1N1) (influenza A virus (H1N1))
[41] = molecular target: hemagglutinin (HA) of influenza A/Malay sia/1701001/2018 (H1N1) (influenza A virus (H1N1))
[42] = molecular target: hemagglutinin (HA) of influenza A/Spain/2602001/2018 (H1N1) (influenza A virus (H1N1))
[43] = molecular target: hemagglutinin (HA) of influenza A/Spain/2609001/2018 (H1N1) (influenza A virus (H1N1))
[44] = molecular target: T2, hemagglutinin (HA) of influenza …; remark: listed apart in the source
[45] = molecular target: hemagglutinin (HA) of influenza A/Thailand/2702008/2018 (H1N1) (influenza A virus (H1N1))

B1: VIS410 (antibody, V domains shown)
VH: QVQLLETGGGLVKPGQSLKLSCAASGFTFTSYAMHWVRQPPGKGLEWVAVVSYDGNYKYYADSVQGRFTISRDNSKNTLYLQMNSLRAEDTAVYYCAKDSRLRSLLYFEWLSQGYFNPWGQGTTLTVSS
VL: DIQMTQSPSSLSASVGDRVTITCRSSQSITFDYKNYLAWYQQKPGKAPKLLIYWGSYLESGVPSRFSGSGSGTDFTLTISSLQPEDFATYYCQQHYRTPPSFGQGTKVEIK
- EC50, NP ELISA infection assay, both assay formats [1]: 10 nM and 20 nM
- EC50, virus infection of MDCK-London cells (NP ELISA microneutralization) [1]: ~0.01 µM and ~1.5 µg/ml
- EC50, virus infection of MDCK-London cells (NP ELISA microneutralization) [2]: ~0.006 µM and ~0.9 µg/ml
- EC50 (µM) - Replicate 1, CPE assay [3]: 0.013 µM
- EC50 (µM) - Replicate 2, CPE assay [3]: 0.011 µM
- IC50, phenotypic IC50 assay (virus infection of MDCK cells) [4]: 1.35 µg/mL
- IC50, phenotypic IC50 assay (virus infection of MDCK cells) [5]: 1.07 µg/mL
- IC50, phenotypic IC50 assay (virus infection of MDCK cells) [6]: 2.65 µg/mL
- IC50, phenotypic IC50 assay (virus infection of MDCK cells) [7]: 0.22 µg/mL
- IC50, phenotypic IC50 assay (virus infection of MDCK cells) [8]: 0.28 µg/mL
- IC50, phenotypic IC50 assay (virus infection of MDCK cells) [9]: 1 µg/mL
- IC50, phenotypic IC50 assay (virus infection of MDCK cells) [10]: 0.34 µg/mL
- IC50, phenotypic IC50 assay (virus infection of MDCK cells) [11]: 0.67 µg/mL
- IC50, phenotypic IC50 assay (virus infection of MDCK cells) [12]: 1.23 µg/mL
- IC50, phenotypic IC50 assay (virus infection of MDCK cells) [13]: 2.41 µg/mL
- IC50, phenotypic IC50 assay (virus infection of MDCK cells) [14]: 0.97 µg/mL
- IC50, phenotypic IC50 assay (virus infection of MDCK cells) [15]: 3.14 µg/mL
- IC50, phenotypic IC50 assay (virus infection of MDCK cells) [16]: 0.92 µg/mL
- IC50, phenotypic IC50 assay (virus infection of MDCK cells) [17]: 1.67 µg/mL
- IC50, phenotypic IC50 assay (virus infection of MDCK cells) [18]: 4.47 µg/mL
- IC50, phenotypic IC50 assay (virus infection of MDCK cells) [19]: 0.81 µg/mL
- IC50, phenotypic IC50 assay (virus infection of MDCK cells) [20]: 0.49 µg/mL
- IC50, phenotypic IC50 assay (virus infection of MDCK cells) [21]: 0.97 µg/mL
- IC50, phenotypic IC50 assay (virus infection of MDCK cells) [22]: 2.2 µg/mL
- IC50, phenotypic IC50 assay (virus infection of MDCK cells) [23]: 1.5 µg/mL
- IC50, phenotypic IC50 assay (virus infection of MDCK cells) [24]: 1.49 µg/mL
- IC50, phenotypic IC50 assay (virus infection of MDCK cells) [25]: 1.26 µg/mL
- IC50, phenotypic IC50 assay (virus infection of MDCK cells) [26]: 1.17 µg/mL
- IC50, phenotypic IC50 assay (virus infection of MDCK cells) [27]: 0.92 µg/mL
- IC50, phenotypic IC50 assay (virus infection of MDCK cells) [28]: 1.65 µg/mL
- IC50, phenotypic IC50 assay (virus infection of MDCK cells) [29]: 1.13 µg/mL
- IC50, phenotypic IC50 assay (virus infection of MDCK cells) [30]: 0.52 µg/mL
- IC50, phenotypic IC50 assay (virus infection of MDCK cells) [31]: 0.55 µg/mL
- IC50, phenotypic IC50 assay (virus infection of MDCK cells) [32]: 0.41 µg/mL
- IC50, phenotypic IC50 assay (virus infection of MDCK cells) [33]: 0.87 µg/mL
- IC50, phenotypic IC50 assay (virus infection of MDCK cells) [34]: 0.57 µg/mL
- IC50, phenotypic IC50 assay (virus infection of MDCK cells) [35]: 0.67 µg/mL
- IC50, phenotypic IC50 assay (virus infection of MDCK cells) [36]: 0.37 µg/mL
- IC50, phenotypic IC50 assay (virus infection of MDCK cells) [37]: 0.71 µg/mL
- IC50, phenotypic IC50 assay (virus infection of MDCK cells) [38]: 0.86 µg/mL
- IC50, phenotypic IC50 assay (virus infection of MDCK cells) [39]: 0.91 µg/mL
- IC50, phenotypic IC50 assay (virus infection of MDCK cells) [40]: 0.86 µg/mL
- IC50, phenotypic IC50 assay (virus infection of MDCK cells) [41]: 0.4 µg/mL
- IC50, phenotypic IC50 assay (virus infection of MDCK cells) [42]: 0.42 µg/mL
- IC50, phenotypic IC50 assay (virus infection of MDCK cells) [43]: 0.43 µg/mL
- IC50, phenotypic IC50 assay (virus infection of MDCK cells) [44]: 0.89 µg/mL
- IC50, phenotypic IC50 assay (virus infection of MDCK cells) [45]: 0.55 µg/mL
